Where “and” joins values, the source holds several entries; their conditions need not be identical. Identical values can stand only once.
How the values were obtained:
human TIGIT ECD T51A = molecular target: T1, human TIGIT ECD T51A (human, UniProt Q495A1 22-141); assay: SPR, antibody captured on anti-human Fc, TIGIT ECD injected
T1 construct: point mutant expressed in E. coli
T1 chain: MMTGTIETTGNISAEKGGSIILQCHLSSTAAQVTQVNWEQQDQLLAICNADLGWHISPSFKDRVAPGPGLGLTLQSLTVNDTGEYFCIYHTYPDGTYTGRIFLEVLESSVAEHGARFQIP

human TIGIT ECD P114G = molecular target: T2, human TIGIT ECD P114G (human, UniProt Q495A1 22-141); assay: as above
T2 construct: point mutant expressed in E. coli
T2 chain: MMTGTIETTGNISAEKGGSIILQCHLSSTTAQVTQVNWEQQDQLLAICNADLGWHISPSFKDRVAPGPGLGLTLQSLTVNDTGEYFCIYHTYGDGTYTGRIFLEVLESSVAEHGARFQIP

human TIGIT ECD Y113A = molecular target: T3, human TIGIT ECD Y113A (human, UniProt Q495A1 22-141); assay: as above
T3 construct: point mutant expressed in E. coli
T3 chain: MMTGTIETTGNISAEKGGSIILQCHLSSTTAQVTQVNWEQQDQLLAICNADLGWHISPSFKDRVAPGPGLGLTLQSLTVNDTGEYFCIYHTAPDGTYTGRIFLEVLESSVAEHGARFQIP

human TIGIT ECD Q56A = molecular target: T4, human TIGIT ECD Q56A (human, UniProt Q495A1 22-141); assay: as above
T4 construct: point mutant expressed in E. coli
T4 chain: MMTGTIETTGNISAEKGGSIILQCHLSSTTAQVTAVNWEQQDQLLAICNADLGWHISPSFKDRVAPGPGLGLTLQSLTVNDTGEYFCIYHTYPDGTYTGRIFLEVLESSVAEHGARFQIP

human TIGIT ECD N70A = molecular target: T5, human TIGIT ECD N70A (human, UniProt Q495A1 22-141); assay: as above
T5 construct: point mutant expressed in E. coli
T5 chain: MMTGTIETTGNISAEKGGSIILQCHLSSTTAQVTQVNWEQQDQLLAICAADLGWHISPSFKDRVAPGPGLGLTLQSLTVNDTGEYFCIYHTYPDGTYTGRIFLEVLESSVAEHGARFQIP

human TIGIT ECD D115A = molecular target: T6, human TIGIT ECD D115A (human, UniProt Q495A1 22-141); assay: as above
T6 construct: point mutant expressed in E. coli
T6 chain: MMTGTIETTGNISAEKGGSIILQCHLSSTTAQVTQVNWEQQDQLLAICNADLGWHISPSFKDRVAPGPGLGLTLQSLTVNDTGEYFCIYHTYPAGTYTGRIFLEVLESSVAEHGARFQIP

human TIGIT ECD Q53A = molecular target: T7, human TIGIT ECD Q53A (human, UniProt Q495A1 22-141); assay: as above
T7 construct: point mutant expressed in E. coli
T7 chain: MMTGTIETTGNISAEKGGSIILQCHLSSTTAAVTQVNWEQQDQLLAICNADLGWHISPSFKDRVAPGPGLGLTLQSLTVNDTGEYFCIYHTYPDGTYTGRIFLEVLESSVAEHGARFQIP

human TIGIT ECD T55A = molecular target: T8, human TIGIT ECD T55A (human, UniProt Q495A1 22-141); assay: as above
T8 construct: point mutant expressed in E. coli
T8 chain: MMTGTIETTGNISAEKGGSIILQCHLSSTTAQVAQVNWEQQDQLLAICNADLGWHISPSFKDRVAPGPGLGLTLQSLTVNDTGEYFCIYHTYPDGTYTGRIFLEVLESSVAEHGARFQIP

human TIGIT ECD H111A = molecular target: T9, human TIGIT ECD H111A (human, UniProt Q495A1 22-141); assay: as above
T9 construct: point mutant expressed in E. coli
T9 chain: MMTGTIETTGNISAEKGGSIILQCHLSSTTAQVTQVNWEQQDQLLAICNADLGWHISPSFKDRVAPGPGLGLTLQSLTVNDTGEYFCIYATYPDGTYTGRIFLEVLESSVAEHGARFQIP

human TIGIT ECD T117A = molecular target: T10, human TIGIT ECD T117A (human, UniProt Q495A1 22-141); assay: as above
T10 construct: point mutant expressed in E. coli
T10 chain: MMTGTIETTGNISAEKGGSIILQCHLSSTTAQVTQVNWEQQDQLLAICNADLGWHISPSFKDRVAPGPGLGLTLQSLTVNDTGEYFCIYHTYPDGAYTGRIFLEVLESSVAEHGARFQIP

[1] = molecular target: T11, human TIGIT ECD (wild-type, expressed in E. coli) (human, UniProt Q495A1 22-141); assay: as above
T11 construct: also called huTIGIT; wild-type TIGIT
T11 sequence: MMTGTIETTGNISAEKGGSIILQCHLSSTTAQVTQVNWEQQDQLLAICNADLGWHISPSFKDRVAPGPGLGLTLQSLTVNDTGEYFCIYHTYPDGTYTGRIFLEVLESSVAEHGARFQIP

human TIGIT ECD A71G = molecular target: T12, human TIGIT ECD A71G (human, UniProt Q495A1 22-141); assay: as above
T12 construct: point mutant expressed in E. coli
T12 chain: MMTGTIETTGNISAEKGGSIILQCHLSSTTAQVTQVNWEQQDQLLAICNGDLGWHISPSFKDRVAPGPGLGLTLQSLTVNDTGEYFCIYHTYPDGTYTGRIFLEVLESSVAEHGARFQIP

His-tagged human TIGIT = molecular target: T13, His-tagged human TIGIT (human, UniProt Q495A1 22-141); assay: SPR Biacore, antibody captured on anti-human Fc, His-tagged TIGIT injected
T13 construct: soluble analyte in SPR
T13 sequence: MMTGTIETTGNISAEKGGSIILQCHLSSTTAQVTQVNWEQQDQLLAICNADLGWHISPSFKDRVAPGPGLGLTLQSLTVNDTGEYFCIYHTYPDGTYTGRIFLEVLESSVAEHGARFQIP

[2] = molecular target: T14, His-tagged cynomolgus monkey TIGIT (cynomolgus monkey, UniProt A0A7N9I9V4 89-209); assay: as above
T14 construct: also called Cyno TIGIT; cynomolgus monkey TIGIT (Novoprotein cat. No. CP02)
T14 sequence (A0A7N9I9V4 entry or part of it): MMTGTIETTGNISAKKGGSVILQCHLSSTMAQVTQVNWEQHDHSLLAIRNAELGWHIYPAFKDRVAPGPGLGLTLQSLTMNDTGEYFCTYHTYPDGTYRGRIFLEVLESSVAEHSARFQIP

B1: 3963H03-12 (antibody, human IgG1, kappa, V domains shown)
VH: QVQLVQSGSELKKPGASVKVSCKASGYTFTSYPMNWVRQAPGQGLEWMGWINTNTGNPTYAQGFTGRFVFSLDTSVSTAYLQISSLKAEDTAVYYCARVGGYSVDEYAFDVWGQGTLVTVSS
VL: DIQLTQSPSFLSASVGDRVTITCRASQGISSYLAWYQQKPGKAPKLLIYAASTLQSGVPSRFSGSGSGTEFTLTISSLQPEDFATYYCQQLSSYPTFGGGTKVEIKR
notes: also called anti-TIGIT H03-12; 39631H03-12
Human TIGIT ECD T51A
  Kd: 1.77 nM
  ΔΔGmut: -0.1 kcal/mol
Human TIGIT ECD P114G
  ΔΔGmut: > 3 kcal/mol
Human TIGIT ECD Y113A
  ΔΔGmut: > 3 kcal/mol
Human TIGIT ECD Q56A
  Kd: 33.9 nM
  ΔΔGmut: 1.65 kcal/mol
Human TIGIT ECD N70A
  Kd: 31.5 nM
  ΔΔGmut: 1.61 kcal/mol
Human TIGIT ECD D115A
  Kd: 14.4 nM
  ΔΔGmut: 1.14 kcal/mol
Human TIGIT ECD Q53A
  ΔΔGmut: > 3 kcal/mol
Human TIGIT ECD T55A
  ΔΔGmut: > 3 kcal/mol
Human TIGIT ECD H111A
  Kd: 30.9 nM
  ΔΔGmut: 1.6 kcal/mol
Human TIGIT ECD T117A
  Kd: 1.58 nM
  ΔΔGmut: -0.17 kcal/mol
[1]
  Kd: 2.08 nM
  ΔΔGmut: 0 kcal/mol
Human TIGIT ECD A71G
  Kd: 7.02 nM
  ΔΔGmut: 0.72 kcal/mol
His-tagged human TIGIT
  Kd: 4.05 nM
  koff: 0.00067 s⁻¹
  kon: 166000 M⁻¹ s⁻¹
[2]
  Kd: 0.829 nM and 0.83 nM
  koff: 0.000133 s⁻¹
  kon: 160000 M⁻¹ s⁻¹

— US20220403022A1 (Merck KGaA, published 2022)
